Data as given in patent publication US20260234276A1 (DOMAIN THERAPEUTICS, published 2026).
Where “and” joins values, the source holds several entries; their conditions need not be identical. Equal values may be shown once.

B1: 3-53 (antibody, V domains shown)
VH: QVQVQQSGAELARPGASVKMSCKASGYTFTTYAMHWVKQRPGQGLEWIGHINPSSGYSNYNQKFKDKATLTADKSSSTAYMQLSSLTSEDSAVYYCARSEVRRGYFDVWGAGTTVTVSS
VL: DIQMTQTTSSLSASLGDRVTISCRTSQDIRNYLNWYQQKPDGTVKLLISYTSRLHSGVPSRFSGSGSGTDYSLTISNLEQEDFATYFCQQGNTLPPTFGGGTRVEIK
B2: 3-13 (antibody, V domains shown)
VH: KVQLQQSGPELVKPGASVKISCKTSGYTFTEYTIHWVQQIHGKSPEWIGGINPNGDTRYDQKFKGKATLTIDKSSSTAYMELRSLTSEDSAVYYCARVARFYGISPYAMDYWGQGTSVTVSS
VL: DVVMTQTPLSLPVSLGDQASISCRCTQSLLHSNGDTYLHWYLQKPGQSPNLLIYKVSNRFSGVPDRFSGSGSGTDFTLKINRVEAEDLGVYFCSQSTHVPYTFGGGTNLEIK
B3: 3-21 (antibody, V domains shown)
VH: QVQLKESGPGLVAPSQSLSITCTVSGLSMNDYVVTWIRQPPGKGLEWLGVIWGGGNTYYNSDLKSRLSITKDNSKSQVFFKMSSLQTDDTAVYYCARRHRDYALDYWGQGISVTVSS
VL: DVVMTQTPLSLPVSLGDQASISCRSSQSLVYSNGNTYLHWYLQKPGQSPKLLIYKVSNRFSGVPDRFSGSGSGTDFTLKISRVEAEDLGVYFCSQSTYVPPTFGGGTKLEIK
B4: 3-33 (antibody, V domains shown)
VH: EVQLQQSGPELVKPGASVKISCKTSGYTFTEYTIHWVKQSHGESLEWVGGINPNNGNTRYDQKFKGKATLTIDKSSSPAYMELRSLTSEDSAVYYCARVARSSGSGPYAMDYWGQGTSVTVSS
VL: DVVMTQTPLSLPVSLGDQASISCRCTQSLLHTNGDTYLHWYLQKPGQSPKLLIYKVSNRFSGVPDRFSGSGSGTDFTLKISRVEAEDLGVYFCSQSTHVPYTFGGGTKLEIK
B5: 3-50 (antibody, V domains shown)
VH: EVQLQQSGPELVKPGASVKISCKASVYSFTGSYMHWVKQSHVKSLEWIGRINPYNGATSYNQNFKDKASLTVDKSSSTAYMELHSLTSEDSAVYYCATTLLRLLDYWGQGTTLTVSS
VL: DIVMTQAAFSNPVTLGTSASISCRSSKSLLHSNGITYLYWYLQKPGQSPQLLIYQMSNLASGVPDRFSSSGSGTDFTLRISRVEAEDVGVYYCAQNLELPWTFGGGTKLEIK
B6: Ref #3 (antibody, human IgG1, V domains shown)
VH: QVQLVQSGAEVKKPGASVKVSCKASGYTFTSYYMHWVRQAPGQGLEWMGIINPSGGSTSYAQKFQGRVTMTRDTSTSTVYMELSSLRSEDTAVYYCARAVRNRFRFDYWGQGTLVTVSS
VL: QSALTQPASVSGSPGQSITISCTGTSSDVGSYNLVSWYQQHPGKAPKLMIYEVSKRPSGVSNRFSGSKSGNTASLTISGLQAEDEADYYCSSYAGSSTFVVFGGGTKLTVL
B7: Ref #4 (antibody, human IgG1, V domains shown)
VH: EVQLVESGGGLVQPGGSLKLSCAASGFTFNTYAMNWVRQASGKGLEWVARIRSKANNYATYYADSVKDRFTISRDDSKNTLYLQMNNLKTEDTAVYYCVRDRSRGEDYAMDYWGQGTLVTVSS
VL: DIVMTQSPLSLPVTPGEPASISCRSSKSLLHSNANTYLYWFLQKPGQSPQLLIYRMSNLASGVPDRFSGSGSGTAFTLKISRVEAEDVGVYYCMQHLEYPFTFGQGTKLEIK
B8: 3-63 (Fab, V domains shown)
VH: QVQLQESGGGVVQPGRSLRLSCAASGFTFSSYGMHWVRQAPGKGLEWVAVISYDGSNKYYADSVKGRFTISRDNSKNTLYLQMNSLRAEDTAVYYCARDRPGGMDVWGKGTMVTVSS
VL: DVVMTQSPLSLPVTLGQPASISCRSSQSLVHSNGNTYLTWFQQRPGQSPRRLIYKVSNRDSGVPDRFSGSGSGTDFTLKISRVEAEDVGVYYCMQGTRWYTFGQGTKLEIKR
notes: soluble Fab from phage display library huFabL-4, Flag tag
B9: 3-64 (Fab, V domains shown)
VH: QLQLQESGGGLVQPGGSLRLSCAASGFTFSSYAMSWVRQAPGKGLEWVSAISGSGGSTYYADSVKGRFTISRDNSKNTLYLQMNSLRAEDTAVYYCASGHSSHAFEIWGQGTTVTVSS
VL: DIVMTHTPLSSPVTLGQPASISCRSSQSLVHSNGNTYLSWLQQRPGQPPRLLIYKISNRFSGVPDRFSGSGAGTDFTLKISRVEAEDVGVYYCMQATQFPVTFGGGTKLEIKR
notes: as for B8
B10: 3-65 (Fab, V domains shown)
VH: QVTLKESGGGVVQPGRSLRLSCAASEFTFRNYAMHWVRQAPGKGLEWVAVISYDGSNKYYADSVKGRFTISRDISKNMVFLQMNSLRADDTAVYYCARGTFLAYWGQGTLVTVSS
VL: EIVLTQSPLSLPVTLGQPASISCRSSQSLVHSDGNTYLSWFQQRPGQSPRRLIYKVSNRDSGVPDRFSGSGSGTDFTLKISRVEAEDVGVYYCMQGIHLPLTFGGGTKLEIKR
notes: as for B8
B11: 3-66 (Fab, V domains shown)
VH: QVQLVESGGGVVQPGRSLRLSCAASGFPFRTYGMHWVRQAPGKGLEWVSSISSSSSYIYYADSVKGRFTISRDNAKNSLELQMNSLRAEDTAVYYCARTTRGAFDIWGKGTMVTVSS
VL: LSSELTQDPAVSVALGQTVRITCQGDSLRSYYASWYQQKPGQAPLLVIYGRNNRPSGIPDRFSGSSSGNTASLTITGAQAEDEADYYCNSRDSSGVPFGTGTQLTVLS
notes: as for B8

Assays:
[1] = biological target: T1, human CCR8 (human, UniProt P51685 1-355); test: cell-based or functional assay
[2] = biological target: T1, human CCR8; test: cell-based or functional assay; remark: listed apart in the source
[3] = biological target: T1, human CCR8; test: cell-based or functional assay; remark: listed apart in the source
[4] = biological target: pm5 (human, sulfated tyrosines at Y15 and Y17); test: ELISA on coated peptide [cont.]
Summary of the method: (§1)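 Binding is scored by optical density: plates carry 500 ng/mL peptide in carbonate/bicarbonate buffer, receive mAb at 1 μg/mL or diluted 1/10 for 90 min at room temperature, then TMB for 15 min.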

[5] = biological target: pm6 (human, sulfated tyrosines at Y16 and Y17); test: ELISA on coated peptide [cont.]
Summary of the method: as §1

[6] = biological target: pm8 (human, sulfated tyrosines at Y15, Y16 and Y17); test: ELISA on coated peptide [cont.]
Summary of the method: as §1

[7] = biological target: pm3 (human, sulfated tyrosine at Y17); test: ELISA on coated peptide [cont.]
Summary of the method: as §1

[8] = biological target: T1, human CCR8; test: flow cytometry, hCCR8 transfected CHOK1 cells
[9] = biological target: CCR8 SNAP-tag (human, UniProt P51685 1-355, SNAP-tag labelled with Lumi4-Terbium); test: cell-based or functional assay
[10] = biological target: T2, streptavidin (UniProt P22629 37-163, limits assumed); test: ELISA, soluble Fab on streptavidin-coated control well without peptide
T2 construct: control well without peptide
Description: (§2) The wells of a microtiter plate were coated with 200 ng streptavidin protein in 100 μL Coating Buffer (0.1 M NaHCO₃, pH 8.6), and then incubated overnight at 4° C. For negative control, the wells were coated with PBS to determine non-specific binding. After shaking out the coating solution, the wells were washed three times with washing buffer (0.1% Tween 20-PBS). To prevent non-specific binding, 200 μL Blocking Buffer (3% BSA-PBS) was adding and incubated for 2 h at 37° C. After shaking out the blocking buffer, the wells were incubated with 50 ng biotinylated target peptide (SEQ ID NO: 420; see Example 10) in 100 μL Blocking Buffer for 1 h at 37° C. The control well was incubated with only 100 μL Blocking Buffer for 1 h at 37° C. After shaking out the biotinylated target peptide or buffer solution, the wells were washed 3 times with the washing buffer (0.1% Tween 20-PBS). Then 100 μL supernatant containing soluble Fab were added and incubated for 2 h at 37° C. Following three washes with washing buffer (0.1% Tween 20-PBS) for 3 times, 100 μL/well HRP conjugate of mouse anti-Flag tag mAb (Sigma A8592, 1:5000) diluted in Blocking Buffer were added and incubated for 1 h at 37° C. After washings, 3,3′,5,5′-tetramethylbenzidine (TMB) (Sigma) were added for 5 to 30 min at room temperature. The reaction was stopped by adding 50 μL/well of 1 M H₂SO₄.

[11] = biological target: T3, biotinylated CCR8 peptide (human, N-terminal biotin); test: ELISA, soluble Fab on biotinylated CCR8 peptide captured on streptavidin
T3 construct: first 34 residues of human CCR8 plus a C-terminal K; also called biotinylated target peptide
Description: as §2

Chain of pm6 (human, sulfated tyrosines at Y16 and Y17) (peptide, as listed by the source): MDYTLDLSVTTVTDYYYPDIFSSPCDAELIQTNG
Chain of pm8 (human, sulfated tyrosines at Y15, Y16 and Y17) (peptide, as listed by the source): as above
Chain of pm5 (human, sulfated tyrosines at Y15 and Y17) (peptide, as listed by the source): as above
Chain of pm3 (human, sulfated tyrosine at Y17) (peptide, as listed by the source): as above
T2 sequence (P22629 37-163 limits assumed): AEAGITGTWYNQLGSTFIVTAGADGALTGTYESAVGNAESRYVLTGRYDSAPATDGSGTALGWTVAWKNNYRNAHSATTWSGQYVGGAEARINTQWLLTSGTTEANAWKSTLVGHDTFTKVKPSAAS

| Binder | IC50 (Gi2 BRET, pH 6.5) [1] | IC50 (Gi2 BRET, pH 7.4) [1] | hCCL1 (100 nM) residual response, Protocol #2, mAb 0.08 µg/mL [2] [%] | hCCL1 (100 nM) residual response, Protocol #2, mAb 0.4 µg/mL [2] [%] | hCCL1 (100 nM) residual response, Protocol #2, mAb 10 µg/mL [2] [%] | hCCL1 (100 nM) residual response, Protocol #3, mAb 0.05 µg/mL [2] [%] | hCCL1 (100 nM) residual response, Protocol #3, mAb 0.5 µg/mL [2] [%] | hCCL1 (100 nM) residual response, Protocol #3, mAb 5 µg/mL [2] [%] | Top plateau value (% of hCCL1 100 nM) with 5 µg/mL mAb, Protocol #3 [3] [%] | binding result [4] | binding result [5] | binding result [6] | binding result [7] | % positive cells [8] [%] | MFI fold change to isotype ctrl [8] [fold] | % of internalization at 1 µg/ml mAb (HTRF) [9] [%] | % of internalization at 10 µg/ml mAb (HTRF) [9] [%] | Optical Density [10] [OD450] | Optical Density [11] [OD450] |
| --- | --- | --- | --- | --- | --- | --- | --- | --- | --- | --- | --- | --- | --- | --- | --- | --- | --- | --- | --- |
| B1 | 0.012 µg/ml and 0.08 nM | 0.015 µg/ml and 0.097 nM | 52 | 68 | 53 | 76 | 62 | 59 | 948 | binds | binds | binds | binds | 77 | 9.2 |  |  |  |  |
| B2 | 0.051 µg/ml and 0.34 nM | 0.059 µg/ml and 0.396 nM | 101 | 93 | 100 | 92 | 81 | 73 | 663 | binds | binds | binds | binds | 85.7 | 9.8 |  |  |  |  |
| B3 | 0.414 µg/ml and 2.76 nM | 0.359 µg/ml and 2.4 nM | 99 | 97 | 97 | 99 | 84 | 75 | 133 | binds | binds | binds | binds | 85.2 | 11.9 |  |  |  |  |
| B4 |  |  | 104 | 46 | 28 | 80 | 57 | 45 | 855 | binds | binds | binds | binds | 56.2 | 4.78 |  |  |  |  |
| B5 | 0.162 µg/ml and 1.08 nM | 0.152 µg/ml and 1.01 nM | 97 | 96 | 84 | 96 | 81 | 73 | 292 |  |  |  |  | 34.7 | 2.34 |  |  |  |  |
| B6 |  |  |  |  |  |  |  |  |  |  |  |  |  |  |  | 100 | 90 |  |  |
| B7 |  |  |  |  |  |  |  |  |  |  |  |  |  |  |  | 95 | 103 |  |  |
| B8 |  |  |  |  |  |  |  |  |  |  |  |  |  |  |  |  |  | 0.09 | 3.66 |
| B9 |  |  |  |  |  |  |  |  |  |  |  |  |  |  |  |  |  | 0.07 | 3.64 |
| B10 |  |  |  |  |  |  |  |  |  |  |  |  |  |  |  |  |  | 0.07 | 3.29 |
| B11 |  |  |  |  |  |  |  |  |  |  |  |  |  |  |  |  |  | 0.1 | 2.56 |
